Data on four substances can be found in paper PMC13399123.

Assay [1] has as its target GST-SH3 (SH3 domain of cortactin fused to GST) (UniProt Q14247). The assay can be described thus: GST pull-down from cell lysates, anti-HS1BP3 immunoblot, quantified. The conditions noted are these: lysates of MKN-74 HS1BP3 KO cells rescued with EGFP-HS1BP3 WT or PRR3.1 mutant; n = 2; parent: est. 8.5; read off a plot; scale: % of GST-SH3 interaction.
The target in assay [2] is cortactin (CTTN), endogenous in MKN-74 cells (UniProt Q14247). The assay can be described thus: GFP-trap pull-down from cell lysates, anti-cortactin immunoblot, quantified. Particulars: MKN-74 HS1BP3 KO cells expressing EGFP-HS1BP3 WT or PRR3.1 mutant; n = 4; parent: est. 1.0; read off a plot.
Sequence of cortactin (CTTN), endogenous in MKN-74 cells (Q14247 whole entry, the tested form may be a part): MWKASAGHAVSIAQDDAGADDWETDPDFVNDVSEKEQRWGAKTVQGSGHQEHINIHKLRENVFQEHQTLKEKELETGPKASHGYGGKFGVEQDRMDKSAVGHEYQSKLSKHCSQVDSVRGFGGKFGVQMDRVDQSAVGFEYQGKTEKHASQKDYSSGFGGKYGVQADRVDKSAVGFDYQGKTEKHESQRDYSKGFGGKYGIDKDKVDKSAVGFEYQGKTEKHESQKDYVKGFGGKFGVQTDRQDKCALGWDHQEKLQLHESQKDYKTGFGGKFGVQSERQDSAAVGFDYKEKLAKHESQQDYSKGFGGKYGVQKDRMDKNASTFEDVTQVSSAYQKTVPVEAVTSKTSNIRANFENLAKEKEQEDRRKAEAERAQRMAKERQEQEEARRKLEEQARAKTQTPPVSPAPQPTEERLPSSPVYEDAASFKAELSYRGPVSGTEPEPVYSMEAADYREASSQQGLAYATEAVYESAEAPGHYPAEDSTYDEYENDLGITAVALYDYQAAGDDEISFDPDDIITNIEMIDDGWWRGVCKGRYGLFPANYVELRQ
In assay [3] the target is GST-SH3 (SH3 domain of cortactin fused to GST) (UniProt Q14247). As to the kind of experiment: GST pull-down with recombinant proteins, anti-MBP immunoblot, quantified. Particulars: 10% of the input MBP protein loaded; n = 2; parent: est. 1.0; read off a plot.
Sequence of GST-SH3 (SH3 domain of cortactin fused to GST) (Q14247 492-550): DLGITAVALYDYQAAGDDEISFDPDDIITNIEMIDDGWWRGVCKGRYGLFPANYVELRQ

Sequence of EGFP-HS1BP3 WT (Q53T59 whole entry, change not shown): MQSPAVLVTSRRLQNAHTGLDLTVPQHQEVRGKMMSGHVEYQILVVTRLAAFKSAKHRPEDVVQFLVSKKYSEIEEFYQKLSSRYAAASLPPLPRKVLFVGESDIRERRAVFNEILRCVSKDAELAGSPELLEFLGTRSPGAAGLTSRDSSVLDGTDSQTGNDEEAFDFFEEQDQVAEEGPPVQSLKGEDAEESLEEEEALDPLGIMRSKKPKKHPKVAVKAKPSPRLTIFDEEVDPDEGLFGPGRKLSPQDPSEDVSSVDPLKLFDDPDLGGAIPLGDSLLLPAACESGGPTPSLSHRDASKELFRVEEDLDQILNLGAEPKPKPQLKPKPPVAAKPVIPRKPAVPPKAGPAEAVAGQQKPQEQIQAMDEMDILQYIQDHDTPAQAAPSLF
Sequence of full-length MBP-HS1BP3 (from UniProt Q53T59) PRR3.2 mut (prolines of PRR3.2 replaced with alanine) (Q53T59 whole entry, change not shown): as above
Sequence of full-length MBP-HS1BP3 (from UniProt Q53T59) PRR3.1+3.2 mut (prolines of PRR3.1 and PRR3.2 replaced with alanine) (Q53T59 whole entry, change not shown): as above
Sequence of full-length MBP-HS1BP3 (from UniProt Q53T59) PRR3.1 mut (prolines of PRR3.1 replaced with alanine) (Q53T59 whole entry, change not shown): as above

“EGFP-HS1BP3 WT (from UniProt Q53T59) PRR3.1 mut (prolines of PRR3.1 replaced with alanine)”: in assay [1], the response is 0.3. Further, the ratio to parent in assay [2] worked out at 0.82. Regarding “full-length MBP-HS1BP3 (from UniProt Q53T59) PRR3.1 mut (prolines of PRR3.1 replaced with alanine)”, the ratio to parent in assay [3] amounted to 0.07. As to “full-length MBP-HS1BP3 (from UniProt Q53T59) PRR3.1+3.2 mut (prolines of PRR3.1 and PRR3.2 replaced with alanine)”, the ratio to parent in assay [3] is 0.51. As to “full-length MBP-HS1BP3 (from UniProt Q53T59) PRR3.2 mut (prolines of PRR3.2 replaced with alanine)”, the ratio to parent in assay [3] was found to be 0.31.
